Assay results: paper PMC4789767, “Application of linker technique to trap transiently interacting protein complexes for structural studies” (Journal of Biological Methods, 2016)

Molecular target: T1, Calmodulin (CaM), wild type, full length (UniProt P0DP26 1-149)
T1 construct: Used without calcium (buffer with 2 mM EGTA); also called WT CaM; apo-CaM; source: purified, as described previously [19]
Experiment: ITC; VP-ITC; 150 µM CaM (WT or mutant) in the syringe, 10 µM full-length Nm/Ng (WT or mutant) in the cell; Buffer A (20 mM imidazole pH 8.0, 100 mM NaCl, 2 mM EGTA); 25°C; 30 injections of 10 µl
Conditions: both partners purified

B1: Neuromodulin (Nm), wild type, full length (natural protein)
chain: MLCCMRRTKQVEKNDEDQKIEQDGVKPEDKAHKAATKIQASFRGHITRKKLKGEKKGDAPAAEAEAKEKDDAPVADGVEKKEGDGSATTDAAPATSPKAEEPSKAGDAPSEEKKGEGDAAPSEEKAGSAETESAAKATTDNSPSSKAEDGPAKEEPKQADVPAAVTDAAATTPAAEDAATKAAQPPTETAESSQAEEEKDAVDEAKPKESARQDEGKEDPEADQEHA
notes: also called WT Nm; source: purified, as described previously [19]
B1: binds.
